Columns and labels:
[1] = system: CaM-Sepharose beads; assay: Bacterially expressed AtNPG1 binding to CaM-Sepharose beads; details: eluted with EGTA-containing buffer
Procedure: A 2.0 kb EcoRI fragment of AtNPG1 cDNA containing the entire coding region was subcloned into pET28a and the orientation of the cDNA was confirmed by restriction analysis and sequencing. Induction of fusion protein, its purification on CaM Sepharose column and detection with horseradish peroxidase CaM isoforms was performed essentially as described earlier (Reddy and Reddy (2000) J. Biol. Chem. 275:35457-35470).

[2] = system: Arabidopsis CaM isoform-2, -4 and -6; assay: Blot overlay of purified AtNPG1 with horseradish peroxidase labeled Arabidopsis CaM isoforms; format: binding, Arabidopsis thaliana; details: absence or presence of calcium
Procedure: HRP was conjugated to CaM and used in blot overlay assays according to the procedure described by Lee et al. (1999) BBA 1433:56-67. Briefly, the Arabidopsis CaM2 was incubated in 25 mM Tris-HCl, pH 7, 2 mM EGTA, and 0.1 M DTT at 55° C. for 1.5 h and the reduced CaM was extensively dialyzed against phosphate-buffered saline at 4° C. Maleimide-activated HRP (Pierce Biotechnology, Inc., Rockford, Ill.) and reduced CaM were incubated at a molar ratio of 1:1 in phosphate-buffered saline at room temperature for 1.5 h. The resulting HRP-CaM complex was verified on a denaturing gel and used in blot-overlay assays. Protein blots were prepared as described above, rinsed in TBST (TBS containing 0.1% (v/v) Tween 20), and blocked by incubating in TBST plus 7% (w/v) non-fat dry milk overnight. The blocked membranes were washed three times, 5 min each, with TBST. After equilibration in the overlay buffer (50 mM imidazole-HCl, pH 7.5, and 150 mM NaCl) for 1 h, the membranes were incubated for 1 h in overlay buffer containing 0.1% gelatin and […] HRP-CaM. The HRP-CaM overlay blots were washed sequentially in three buffers. Wash with each buffer was performed five times for 5 min each. […] The proteins that bound to HRP-CaM were detected by immersing the blots in a substrate solution as above. […]

[3] = target: T1, HRP-CaM (Arabidopsis CaM2) (Arabidopsis thaliana, UniProt P0DH97); assay: HRP-CaM blot overlay assay; format: binding
T1 construct: made in house; host or cells: E. coli BL21(DE3)
Procedure: HRP was conjugated to CaM and used in blot overlay assays according to the procedure described by Lee et al. (1999) BBA 1433:56-67. Briefly, the Arabidopsis CaM2 was incubated in 25 mM Tris-HCl, pH 7, 2 mM EGTA, and 0.1 M DTT at 55° C. for 1.5 h and the reduced CaM was extensively dialyzed against phosphate-buffered saline at 4° C. Maleimide-activated HRP (Pierce Biotechnology, Inc., Rockford, Ill.) and reduced CaM were incubated at a molar ratio of 1:1 in phosphate-buffered saline at room temperature for 1.5 h. The resulting HRP-CaM complex was verified on a denaturing gel and used in blot-overlay assays. Protein blots were prepared as described above, rinsed in TBST (TBS containing 0.1% (v/v) Tween 20), and blocked by incubating in TBST plus 7% (w/v) non-fat dry milk overnight. The blocked membranes were washed three times, 5 min each, with TBST. […] The proteins that bound to HRP-CaM were detected by immersing the blots in a substrate solution as above.
Maize pollen proteins were extracted in a buffer containing 50 mM Tris-HCl, pH 7.4, 250 mM sucrose, 5 mM DTT, and complete protease inhibitor mixture. […] The absorbance of the eluted fractions was recorded at 235 and 280 nm to compare the elution profile of protein with EGTA. […]

[4] = target: T2, biotinylated CaM (Bos taurus, UniProt P62157); assay: Blot overlay of fusion proteins with biotinylated CaM; format: binding; details: in the presence of Ca2+
T2 construct: purchased Calbiochem-Novabiochem (San Diego, Calif.)
Procedure: Soluble and insoluble proteins from the induced and un-induced cultures were separated on 12% SDS-polyacrylamide gels and blotted as described above. To detect the binding of the expressed proteins to ^35S-labeled AtCaM, duplicate blots were blocked for 15 min in TBS (50 mM Tris-HCl, pH 7.5, 150 mM NaCl) containing 5 mM of either CaCl2 or EGTA and 1% nonfat dry milk. The blots were then incubated for 12 h in a mixture of ^35S-labeled AtCaM isoforms at […] in the same buffers as above. The filters were then washed with the corresponding buffer and dried before exposing to X-ray film. Binding to biotinylated CaM was detected by blocking the blots in 3% gelatin in TBS/Ca/Mg or TBS/EGTA/Mg (50 mM Tris-HCl, pH 7.5, 50 mM MgCl2, 150 mM NaCl, and 5 mM of either CaCl2 or EGTA) at 30° C. The blots were then incubated in […] biotinylated CaM for 2 h in TBS/Ca/Mg or TBS/EGTA/Mg containing 0.1% Tween 20 and 1% gelatin followed by three washes of 10 min each in the corresponding buffers above. The blots were then incubated in Vectastain ABC.HRP in TBS/Ca/Mg or TBS/EGTA/Mg for 30 min, washed 3 times, 10 min each, with the above buffer and the CaM-binding proteins were detected colorimetrically in a substrate solution (0.8 mg/ml diaminobenzidine, 0.4 mg/ml NiCl2, and 0.009% H2O2 in 100 mM Tris-HCl, pH 7.5).

[5] = target: T3, CaM-Sepharose (Bos taurus, UniProt P62157); assay: Native NPG1 from maize pollen on CaM-Sepharose column / pull-down with CaM-Sepharose beads; format: binding, bovine; details: bound with Ca2+, eluted with EGTA; maize pollen extract
T3 construct: purchased Amersham Pharmacia Biotech UK Ltd., Little Chalfont, Buckinghamshire, UK
Procedure: Maize pollen proteins were extracted in a buffer containing 50 mM Tris-HCl, pH 7.4, 250 mM sucrose, 5 mM DTT, and complete protease inhibitor mixture. The extract was first centrifuged at 14,000×g for 20 min and then at 100,000×g for 15 min at 4° C. to obtain the supernatant containing soluble proteins. Prior to loading the supernatant onto the CaM-Sepharose column (Amersham Pharmacia Biotech UK Ltd., Little Chalfont, Buckinghamshire, UK) the concentration of Ca^2+ was adjusted to 1.25 mM. The flow-through was collected and saved. The column was washed thoroughly with binding buffer (50 mM Tris-HCl, pH 7.5, 150 mM NaCl, 1.25 mM CaCl2) to remove unbound proteins. Washes equivalent to 1-bed volume of the column were collected and saved. The CaM-binding proteins were eluted with elution buffer (50 mM Tris-HCl, pH 7.5, 150 mM NaCl, 5 mM EGTA). The absorbance of the eluted fractions was recorded at 235 and 280 nm to compare the elution profile of protein with EGTA. Initial soluble extract, flow-through, wash fraction, and eluted protein were separated on three denaturing gels. One gel was stained with Coomassie Blue and the other two were blotted onto nitrocellulose membranes and probed with NPG1-specific antibody or HRP-CaM.
[…] of pollen soluble proteins prepared as described above were mixed and incubated with 0.2 ml of CaM-Sepharose beads at room temperature for 30 min. […]

[6] = system: 35S-labeled AtCaM; assay: Blot overlay of bacterially expressed maize NPG1 fusion proteins with 35S-CaM; format: binding, Arabidopsis thaliana; details: in the presence of EGTA
Procedure: The 1.2-kb cDNA insert (named P3) containing the coding region for 242 amino acids in the carboxyl-terminal region was cloned in-frame into a pET28b expression vector. For mapping the CaM-binding domain, several truncated constructs were prepared in a pET vector. The P3 cDNA in pET28 was digested with either NcoI or BamHI to release a 168- or 717-bp fragment corresponding to the 5′ end of the cDNA. The NcoI and BamHI fragments were cloned into pET28b vector digested with the respective enzymes to generate P3/NcoI and P3/BamHI clones. The P3 clones lacking either NcoI or BamHI fragments were religated to generate PΔNcoI and PΔBamHI expression clones. […]
Soluble and insoluble proteins from the induced and un-induced cultures were separated on 12% SDS-polyacrylamide gels and blotted as described above. […] Binding to biotinylated CaM was detected by blocking the blots in 3% gelatin in TBS/Ca/Mg or TBS/EGTA/Mg (50 mM Tris-HCl, pH 7.5, 50 mM MgCl2, 150 mM NaCl, and 5 mM of either CaCl2 or EGTA) at 30° C. […] The blots were then incubated in Vectastain ABC.HRP in TBS/Ca/Mg or TBS/EGTA/Mg for 30 min, washed 3 times, 10 min each, with the above buffer and the CaM-binding proteins were detected colorimetrically in a substrate solution (0.8 mg/ml diaminobenzidine, 0.4 mg/ml NiCl2, and 0.009% H2O2 in 100 mM Tris-HCl, pH 7.5).

B1: AtNPG1: Arabidopsis NPG1, protein of 704 amino acids, SEQ ID NO:10, bacterially expressed as T7 tag fusion (protein, listed as Arabidopsis thaliana)
chain: MLGNQSADFSEKGEDEIVRQLCANGICMKTTEVEAKLDEGNIQEAESSLREGLSLNFEEARALLGRLEYQRGNLEGALRVFEGIDLQAAIQRLQVSVPLEKPATKKNRPREPQQSVSQHAANLVLEAIYLKAKSLQKLGRITEAAHECKSVLDSVEKIFQQGIPDAQVDNKLQETVSHAVELLPALWKESGDYQEAISAYRRALLSQWNLDNDCCARIQKDFAVFLLHSGVEASPPSLGSQIEGSYIPRNNIEEAILLLMILLKKFNLGKAKWDPSVFEHLTFALSLCSQTAVLAKQLEEVMPGVFSRIERWNTLALSYSAAGQNSAAVNLLRKSLHKHEQPDDLVALLLAAKLCSEEPSLAAEGTGYAQRAINNAQGMDEHLKGVGLRMLGLCLGKQAKVPTSDFERSRLQSESLKALDGAIAFEHNNPDLIFELGVQYAEQRNLKAASRYAKEFIDATGGSVLKGWRFLALVLSAQQRFSEAEVVTDAALDETAKWDQGPLLRLKAKLKISQSNPTEAVETYRYLLALVQAQRKSFGPLRTLSQMEEDKVNEFEVWHGLAYLYSSLSHWNDVEVCLKKAGELKQYSASMLHTEGRMWEGRKEFKPALAAFLDGLLLDGSSVPCKVAVGALLSERGKDHQPTLPVARSLLSDALRIDPTNRKAWYYLGMVHKSDGRIADATDCFQAASMLEESDPIESFSTIL
modifications: T7 tag fusion
For B1, the “binding to CaM-Sepharose beads” value [1] was “bound CaM-Sepharose beads in a calcium-dependent manner” and the “binding to Arabidopsis CaM isoforms in blot overlay” value [2] was “bound three Arabidopsis CaM isoforms in a calcium-dependent manner”.

B2: NPG1: maize pollen-specific calmodulin-binding protein, 659 amino acid residues, about 72 kDa, SEQ ID NO:1 (protein)
chain: MPLIRYYVDHVHVAVEARALLGRLEFQKGNVEVALRVFDGIDLQAAIQQFQPSLSDKTPSKKGRTKSEIPSSVPQNNPASLVLEAIYLKSLSLQKLGKSTEAANQCKSVLDSVESIFQNGAPDIEQKLQETVNKSVELLPEAWKHAGSNQEALASYRRALLSPWNLDDECRTRVQKRFASFLLYXTNIDWSPPSMAQQVEGCFVPKNSVEEAVLLLMVVLRSWYQGKTHWDPSVMEHLTYALSLCGEPLVLAKQLEEVLPGVYPRTERWATLALCYYVAGQKDVALNFLRKSLNKLENPNDVLALLLAAKICSKERHLASEGVEYARRVIACAESSDPHLKSVGLHFLGSCLGNKSKVVSSDYQRSLLQTETLKSFAESIGLNRYNADLIFDMGVEYAEQRNMNAALRCAKEFIEATGGSVSKGWRLLALILSAQQRFSEAEVATDAALDETAKLDQGSLLRVKAKLKVAQSSPMEAVEAYRALLALVQAQKNSPGGSCKSATEDADGSVSEFEIWQGLANLYSSLSYWRDAEICLNKARALKLYSAATLHAEGYMHEARDQTTDALAAYVNAFSTELEHVPSKVAIGAMLSKQGPRFLPAARCFLSDALRVEPTNRMAWLYLGKVHRSDGRISDAADCFQAAVMLEESDPVESFSSLS
modifications: X: residue not identified in the source
In the case of B2, the “detection by HRP-CaM in blot overlay” value [3] is reported as “also detected by HRP-CaM”, the “binding to biotinylated CaM” value [4] is reported as “did not bind to biotinylated CaM” and the “binding of native protein to CaM-Sepharose” value [5] is reported as “binds CaM in the presence of Ca^2+”. The “binding to CaM” value [6] was “No binding to CaM was observed”.
